Measurements reported in patent US20260258121A1, “USES OF POMC-SPECIFIC ANTIBODY AND MARCHF6” (KOREA UNIVERSITY RESEARCH AND BUSINESS FOUNDATION, priority 2023, published 2026).
Changes are numbered by the printed parent chain. Names and notes keep the numbering of the source. Where a SMILES comes first, the peptide text is derived from it. The star is where a group is joined. Cbz = O=C(OCc1ccccc1)*; CH2F = FC*

Columns and labels:
[1] = test system: POMCha-overexpressing Marchf6-KO N43/5 cells; experiment: Cell viability (CellTiter-Glo) of POMCha-overexpressing Marchf6-KO N43/5 cells; type: cell-based, mouse; details: for reduced viability of POMCha-overexpressing Marchf6-deficient N43/5 cells, effect of ectopic expression: ectopic expression by transfection
Description: To understand the functional or mechanistic association between Marchf6-mediated POMC degradation and ferroptosis, lipid ROS levels were compared in N43/5 cells overexpressing POMCha using a lipid peroxidation sensor C11-BODIPY^581/591. Specifically, WT or Marchf6-KO N43/5 cells were transfected with pCH4129 (POMCha) for 48 hours, and the medium was replaced with a culture medium containing 2 μM C11-BODIPY^581/591 (Thermo Fisher Scientific, D3861). The cells were incubated at 37° C. for 30 minutes, and the fluorescent probe-treated cells were trypsinized, transferred to a 15 ml Falcon tube, washed three times with 1 ml of ice-cold PBS, and then transferred to an ice-cold round-bottom polystyrene tube (Corning, 352235). The amount of intracellular lipid ROS in […] was measured using CytoFLEX LX (Beckman Coulter) using fluorescein isothiocyanate (FITC) and analyzed using FlowJo v10.8.1 (BD Bioscience). In addition, cell viability was analyzed using a CellTiter-Glo luminescent 3D cell viability assay kit (Promega, G9241) and a multimode plate reader (TECAN, Spark 10 M). At this time, when the inhibition of cell death was evaluated, WT or Marchf6-KO N43/5 cells expressing pCH60 (empty vector) or pCH4129 (POMCha) (final concentration of […] each) were treated with 5 μM Fer-1, 20 μM Z-VAD-FMK or 40 μM Nec-1, and incubated for 24 hours, and cell viability was analyzed. In addition, the intracellular NADP(H) level was measured using a NADP/NADPH-Glo assay kit (Promega, G9081) and a multimode plate reader (TECAN, Spark 10 M). Further, LDH activity was measured using the Cytotoxicity Detection Kit Plus (LDH) (Sigma, 4744926001).
Through Examples, since Marchf6 mediated the degradation of POMC, it was expected that loss of Marchf6 would make POMC neurons hypersensitive to POMC-induced ferroptosis. Therefore, pCH60 (empty vector), pCH879 (Marchf63f), pCH880 (Marchf6flag^C9A), or pCH4170 (Marchf6flag^P460A) was transfected into WT or Marchf6-KO N43/5 cells, and the degree of ferroptosis induction in POMC neurons was analyzed as in Example 6-1.

[2] = test system: Gpx4; experiment: Immunoblotting of Gpx4 in POMCha^Δ1-26-expressing N43/5 cells treated with degradation inhibitors; type: cell-based, mouse; details: 8 hours
Description: To determine whether full-length POMCha or cytosolic POMCha^[…] regulated the expression of Gpx4 protein, which was known to be degraded by ferroptosis induction, the mRNA level of Gpx4 was analyzed by qRT-PCR in […]/5 cells overexpressing full-length POMCha or cytosolic POMCha^[…], and subjected to CHX-chase assay. In addition, since Gpx4 degradation occurred through chaperone-mediated autophagy (CMA), macroautophagy, or the Ub-proteasome system, […]/5 cells overexpressing POMCha^[…] were treated with a lysosomal inhibitor such as chloroquine (CQ) or BafA1 (bafilomycin A1), a proteasome inhibitor MG132, or a macroautophagy inhibitor 3-MA (3-methyladenine), and the expression of Gpx4 protein was analyzed by immunoblotting. In addition, the expression of lysosome-associated protein 2A (Lamp2a), heat shock chaperones Hsc70 and Hsp90 was confirmed by immunoblotting in […]/5 cells overexpressing POMCha^[…], and changes in Gpx4 were analyzed by treatment with Lamp2a-specific siRNA (SCBT, sc-35791).

[3] = target: T1, POMC (Homo sapiens, UniProt P01189); experiment: Chemical crosslinking-based reciprocal co-immunoprecipitation assay in HEK293T cells; type: binding; details: DSP crosslinking
T1 construct: expressed in transfected cells; host or cells: HEK293T
T1 sequence (P01189 1-267): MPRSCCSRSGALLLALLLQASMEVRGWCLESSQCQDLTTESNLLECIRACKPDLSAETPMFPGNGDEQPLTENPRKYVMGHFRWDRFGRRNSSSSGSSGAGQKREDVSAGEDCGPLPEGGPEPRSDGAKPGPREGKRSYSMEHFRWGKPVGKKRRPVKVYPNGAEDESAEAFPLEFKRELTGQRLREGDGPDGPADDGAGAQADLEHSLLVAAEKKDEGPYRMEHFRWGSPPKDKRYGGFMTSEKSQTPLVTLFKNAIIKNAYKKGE
Description: For the chemical crosslinking-based reciprocal co-immunoprecipitation assay, HEK293T cells were incubated at […] in a 10-cm dish plate and co-transfected with […] of pCH60 (empty vector) or pCH4129 (exogenous C-terminally hemagglutinin (ha)-tagged POMC: POMCha) and pCH879 (wild-type C-terminal triple flag-tagged Marchf6: Marchf63f) or pCH4170 (Marchf6^P460A) and incubated for 48 hours. The cells were washed with PBS, treated with 1 mM DSP [dithiobis(succinimidyl propionate)] (Thermo Fisher, 22585), and then the crosslinked cells were lysed and immunoprecipitated. The beads were washed three times with an IP-wash buffer (20 mM Tris-HCl, 137 mM NaCl, 0.1% NP-40, 2 mM EDTA, 10% glycerol) and bound proteins were eluted with a 2× SDS sample buffer. For immunoprecipitation with FLAG-agarose (Sigma-Aldrich, A2220), a 3× FLAG peptide (Protein Ark, GEN-3XFLAG-5) was used. Thereafter, the eluate was denatured and heated at 37° C. for 20 minutes, and SDS-PAGE and immunoblotting were performed using the corresponding antibody.

[4] = test system: Gpx4, CHOP, Nox2, and Nox4; experiment: Immunoblotting of Gpx4, CHOP, Nox2 and Nox4 in POMCha-overexpressing Marchf6-KO N43/5 cells; type: cell-based, mouse

**Q.** `CN1C(=O)C(Cc2c[nH]c3ccccc23)NC1=S` (stereo not drawn) [Nec-1, necrostatin-1, reference compound] was tested. Which “decreased viability of POMCha-overexpressing Marchf6-KO N43/5 cells, effect of treatment” value ([1]; 40 μM Nec-1, 24 hours) did it give?
**A.** The value was “not restored”.

**Q.** For `COC(=O)C[C@H](NC(=O)[C@H](C)NC(=O)[C@@H](NC(=O)OCc1ccccc1)C(C)C)C(=O)CF` [Z-VAD, Z-VAD-FMK, reference compound] (Cbz-Val-Ala-Asp(OMe)-CH2F), which “decreased viability of POMCha-overexpressing Marchf6-KO N43/5 cells, effect of treatment” value ([1]; 20 μM Z-VAD-FMK, 24 hours) is on record?
**A.** Its value is “not restored”.

**Q.** How did the “Gpx4 downregulation in POMCha^Δ1-26-expressing N43/5 cells, effect of treatment” value ([2]; CQ 50 μM) turn out when `CCN(CC)CCCC(C)Nc1ccnc2cc(Cl)ccc12` (stereo not drawn) [CQ, chloroquine] was run?
**A.** Its value is “restored”.

**Q.** How did the “Gpx4 downregulation in POMCha^Δ1-26-expressing N43/5 cells, effect of treatment” value ([2]; BafA1 100 nM) turn out when `CO/C1=C\C(C)=C\[C@@H](C)[C@@H](O)[C@@H](C)C/C(C)=C/C=C/[C@H](OC)[C@@H]([C@@H](C)[C@@H](O)[C@H](C)[C@@]2(O)C[C@@H](O)[C@H](C)[C@@H](C(C)C)O2)OC1=O` [BafA1, bafilomycin A1] was run?
**A.** Its value is “restored”.

B1: Marchf63f^P460A: POMC-inaccessible Marchf6 mutant with Pro460-to-Ala mutation in the POMC-interacting region (pCH4170) (protein, UniProt Q6ZQ89 1-909, looked up, variant P460A)
E3 ubiquitin-protein ligase …: MDTAEEDICRVCRSEGTPEKPLYHPCVCTGSIKFIHQECLVQWLKHSRKEYCELCKHRFAFTPIYSPDMPSRLPIQDIFAGLVTSIGTAIRYWFHYTLVAFAWLGVVPLTACRIYKCLFTGSVSSLLTLPLDMLSTENLLADCLQGCFVVTCTLCAFISLVWLREQIVHGGAPIWLEHAAPPFNAAGHHQNEAPVGGNGAENPAADQPANPAGENAVLGENPDAQDGQAEEEEEDNEEEDDAGVEDAADANNGAQDDMNWNALEWDRAAEELTWERMLGLDGSLVFLEHVFWVVSLNTLFILVFAFCPYHIGHFSLVGLGFEEHVQASHFEGLITTIVGYILLAITLIICHALATLVKFHRSRRLLGVCYIVVKVSLLVVVEIGVFPLICGWWLDICSLEMFDATLKDRELSFQSAPGTTMFLHWLVGMVYVFYFASFILLLREVLRPGVLWFLRNLNDADFNPVQEMIHLPIYRHLRRFILSVIVFGSIVLLMLWLPIRIIKSLLPNFLPYNVMLYSDAPVSELSLELLLLQVVLPALLEQGHTRQWLKGLVRAWTVTAGYLLDLHSYLLGDQEENENSANQQVNNNQPARNNNAVPAGEGLHAAHQAILQQGGPVGFQPYRRPLNFPLRIFLLIVFMCITLLIASLICLTLPVFAGRWLMSFWTGTAKIHELYTAACGLYVCWLTIRAVTVLVAWMPQGRRVIFQKVKEWSLMIMKTLIVAVLLAGVVPLLLGLLFELVIVAPLRVPLDQTPLFYPWQDWALGVLHAKIIAAITLMGPQWWLKTVIEQVYANGIRNIDLHYIIRKLAAPVISVLLLSLCVPYVIASGAVPLLGVTAEMQNLVHRRIYPFLLMVVVLMGILSFQVRQFKRLYEHIKNDKYLVGQRLVNYERKSGKQGPSTPPPVSSQE
modifications: C-terminal triple FLAG tag
**Q.** Which results are given for B1?
**A.** binding of full-length POMC (co-immunoprecipitation) [3]: did not bind; reduced viability of POMCha-overexpressing Marchf6-deficient N43/5 cells, effect of ectopic expression [1]: not restored; expression levels of Gpx4, CHOP, Nox2, and Nox4 proteins, effect of expression of construct [4]: not restored

B2: Marchf63f^C9A: catalytically inactive Marchf6 mutant (pCH880) (protein, UniProt Q6ZQ89 1-909, looked up, variant C9A)
E3 ubiquitin-protein ligase …: B1 E3 ubiquitin-protein ligase … with C9A, A460P
modifications: C-terminal triple FLAG tag
**Q.** For B2, which “reduced viability of POMCha-overexpressing Marchf6-deficient N43/5 cells, effect of ectopic expression” value [1] is on record?
**A.** The value was “not restored”.

**Q.** What about the “expression levels of Gpx4, CHOP, Nox2, and Nox4 proteins, effect of expression of construct” value [4] of the same molecule?
**A.** The value was “not restored”.
